# Measured values reported in patent US20250361297A1, “ANTI- SIGLEC-15 BINDING MOLECULES AND METHODS OF USE” (ADAPTAM THERAPEUTICS, S.L., priority 2024, published 2025).
# “Also recorded” adds a separate entry of the source.
# T1: recombinant human Siglec-15 protein (Homo sapiens, UniProt Q6ZMC9)
# T1 construct: purchased Bonopusbio CW70-50 ug
# T1 sequence (Q6ZMC9 20-263 limits assumed): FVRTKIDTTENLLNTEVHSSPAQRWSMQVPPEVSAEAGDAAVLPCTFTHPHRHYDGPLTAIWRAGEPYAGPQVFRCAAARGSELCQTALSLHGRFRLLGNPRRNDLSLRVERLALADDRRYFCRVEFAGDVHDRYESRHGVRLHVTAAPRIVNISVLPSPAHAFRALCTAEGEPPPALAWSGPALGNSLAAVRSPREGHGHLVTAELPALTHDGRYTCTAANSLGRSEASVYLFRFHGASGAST
# T2: mutant version of Siglec-15 (R143A) (Homo sapiens, UniProt Q6ZMC9, R143A)
# T2 construct: expressed in transfected cells; host or cells: HEK293T
# T2 sequence (Q6ZMC9 20-328 R143A): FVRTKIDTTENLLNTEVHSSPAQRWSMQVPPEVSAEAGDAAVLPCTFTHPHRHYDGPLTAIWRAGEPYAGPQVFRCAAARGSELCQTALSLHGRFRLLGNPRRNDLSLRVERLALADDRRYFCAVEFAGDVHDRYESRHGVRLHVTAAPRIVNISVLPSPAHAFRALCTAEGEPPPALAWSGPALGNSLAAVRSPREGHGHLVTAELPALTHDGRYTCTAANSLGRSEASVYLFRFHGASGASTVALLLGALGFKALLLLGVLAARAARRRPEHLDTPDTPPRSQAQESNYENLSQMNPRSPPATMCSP
# What was measured:
# [1] = system: truncated second domain (D2) of Siglec-15; assay: Flow cytometry binding to HEK 293T cells expressing only the truncated second domain (D2) of Siglec-15; set-up: species or system human; settings: HEK 293T cells expressing only truncated D2; flow cytometry (FIG. 2B, FIG. 17)
# Source text: Flow cytometry was used to interrogate the binding of anti-Siglec-15 monoclonal antibodies to cells expressing only a truncated version of Siglec-15 comprising solely of the second domain (D2). This strategy was useful to identify clones that recognize epitopes outside of the canonical sialic acid binding site located in the first domain (D1).
# For the ELISA, antigens were immobilized on high-binding plates, and the full-length IgG1 anti-Siglec-15 antibodies were titrated beginning at a concentration of 10 μg/ml. After washing, an anti-human IgG Fab-specific HRP-conjugated secondary antibody was applied for detection. Palivizumab was included as the negative control. Optical densities were measured to generate binding curves from which EC50 values were derived. […] Flow cytometric analysis was conducted, and fluorescence intensity was used to calculate EC50 values, providing a quantitative assessment of the antibodies' cell surface binding efficacy. […] Antibodies were titrated starting at a concentration of 10 μg/ml and detected with an anti-human Fc-specific secondary antibody to detect bound primary antibodies. The half-maximal effective concentration (EC50) was calculated for each antibody to determine its binding affinity to mouse Siglec-15. Results were analyzed and ranked based on the EC50 values. […]
# [2] = biological target: T1, recombinant human Siglec-15 protein; assay: BIACORE surface plasmon resonance binding affinity; settings: SPR; antibody as ligand, human Siglec-15 as analyte; 1:1 Langmuir model
# Source text: Binding affinity determination of anti-Siglec-15 monoclonal antibodies using BIACORE surface plasmon resonance: The purified anti-Siglec-15 monoclonal antibodies (mAbs) were characterized for binding affinity and binding kinetics by Biacore T200 system (GE healthcare, Pittsburgh, PA, USA). Anti-Siglec-15 antibodies were covalently linked to a CM5 chip (carboxy methyl dextran coated chip, GE healthcare, Cat #BR-1005-30) via primary amines, using a standard amine coupling kit provided by Biacore (GE healthcare, Pittsburgh, PA, USA). Un-reacted moieties on the biosensor surface were blocked with ethanolamine. Then, serially diluted recombinant human Siglec-15-his protein (Bonopusbio, CW70-50 ug), 2-fold serial dilution in HBS-EP buffer starting at 80 nM, were respectively flown onto the chip at a flow rate of […]. The antigen-antibody association kinetics was followed for 2 minutes, and the dissociation kinetics was followed for 10 minutes. The association and dissociation curves were fit to a 1:1 Langmuir binding model using BIAcore evaluation software. The dissociation rate (kd) and association constant (ka) rate constants were obtained using Evaluation Software. The equilibrium dissociation constant (KD) was calculated from the ratio of kd over ka.
# [3] = biological target: T2, mutant version of Siglec-15 (R143A); assay: Flow cytometry binding to HEK293T cells expressing mutant Siglec-15 (R143A); settings: flow cytometry (FIG. 20, FIG. 21)
# Protocol: Assessment of the binding of anti-Siglec-15 antibodies to HEK293T cells expressing full length human Siglec-15, or mutant human Siglec-15 (R143A) or the domain 2 of human Siglec-15 by Flow cytometry: Siglec-15+, Siglec-15+R143A, and Siglec-15 Domain 2 (D2) HEK293T cells were detached using tryple and washed once with PBS, resuspended in 1× flow cytometry buffer (PBS with 1% FBS) at approximately 1-2×10^6 cells/mL. Then, anti-Siglec-15 mAbs were added to the cell suspension at the desired concentration, starting at 10 μg/mL and performing 1/3 dilutions. Cells were incubated with the indicated antibodies for 30-60 minutes at 4° C. in the dark to prevent degradation of the fluorescent signal. After the primary antibody incubation, cells were washed twice with PBS or flow cytometry buffer by centrifuging at 300-500× g for 5 minutes and the pellet resuspended in fresh buffer. The following antibody was added: anti-human IgG-PE at a 1:500 dilution. Cells were incubated with the secondary antibody for 30 minutes at 4° C. in the dark. Finally, cells were washed twice with PBS or flow cytometry buffer to remove any excess secondary antibody and acquired in a flow cytometer.
# [4] = system: osteoclast differentiation; assay: Osteoclast differentiation in vitro (TRACP 5b in culture medium); assay type: cell-based; settings: relative to baseline levels; culture medium at day 7 (FIG. 46)
molecule,measurement,setting,value
"S15B1: parental mouse anti-Siglec-15 monoclonal antibody from hybridoma; VH SEQ ID NO: 18, VL SEQ ID NO: 19 (antibody, V domains shown, Clone S15B1 VH; Clone S15B1 VL) VH: QVQLQQSGPELVKPGASVKISCKASGYAFSSSWMNWVKQRPGKGLEWIGRIYPGHGETNYNGKFKDKATVTADKSSSTTYMQLSSLTSEDSAVYFCARVDNSDPYYFDYWGQGTTLTVSS VL: DIVLTQSPASLAVSLGQRATISCRASKSVSTSGYSYMHWYQQKPGQPPKLLIYLASNLESGVPARFSGSGSGTDFTLNIHPVEEEDAATYYCQHGRELPFTFGSGTKLEIK",binding to D2 of Siglec-15,[1],displayed binding affinity for D2; also recorded: significant binding to D2
same,ka,[2],4.46e+06 M⁻¹ s⁻¹
same,kd,[2],0.000233 s⁻¹
same,binding to HEK293T cells expressing mutated Siglec-15 (R143A),[3],demonstrated binding
same,effect on osteoclast differentiation (TRACP 5b),[4],did not significantly affect
